Measurements taken from the DeepSol protein solubility set.

Assay: soluble on expression in E. coli; label from the status in PepcDB or PDB records

| Sequence | soluble on expression in E. coli |
| --- | --- |
| MSLARPNSKASIGTVFQDRAARYGDRVFLKFGDQQLTYRDANATANRYAAVLAARGVGPGDVVGIMLRNSPSTVLAMLATVKCGAIAGMLNYHQRGEVLAHSLGLLDAKVLIAESDLVSAVAECGASRGRVAGDVLTVEDVERFATTAPATNPASASAVQAKDTAFYIFTSGTTGFPKASVMTHHRWLRALAVFGGMGLRLKGSDTLYSCLPLYHNNALTVAVSSVINSGATLALGKSFSASRFWDEVIANRATAFVYIGEICRYLLNQPAKPTDRAHQVRVICGNGLRPEIWDEFTTRFGVARVCEFYAASEGNSAFINIFNVPRTAGVSPMPLAFVEYDLDTGDPLRDASGRVRRVPDGEPGLLLSRVNRLQPFDGYTDPVASEKKLVRNAFRDGDCWFNTGDVMSPQGMGHAAFVDRLGDTFRWKGENVATTQVEAALASDQTVEECTVYGVQIPRTGGRAGMAAITLRAGAEFDGQALARTVYGHLPGYALPLFVRVVGSLAHTTTFKSRKVELRNQEGHHHHHH | not soluble |
| VRSVQEHQRVVAEMMRACRPITVPLTQAQGLVLGGDVVAPLSLPVFDNSAMDGYAVRAEDTSGATPQNPVMLPVAEDIPAGRADMLTLQPVTAHRIMTGAPVPTGATAIVPVEATDGGVDSVAIRQQATPGKHIRRSGEDVAAGTTVLHNGQIVTPAVLGLAAALGLAELPVLPRQRVLVISTGSELASPGTPLQPGQIYESNSIMLAAAVRDAGAAVVATATAGDDVAQFGAILDRYAVDADLIITSGGVSAGAYEVVKDAFGSADYRGGDHGVEFVKVAMQPGMPQGVGRVAGTPIVTLPGNPVSALVSFEVFIRPPLRMAMGLPDPYRPHRSAVLTASLTSPRGKRQFRRAILDHQAGTVISYGPPASHHLRWLASANGLLDIPEDVVEVAAGTQLQVWDLT | not soluble |
| HHHMFNAKYVAEATGNFITVMDALKLNYNAKDQLHPLLAELLISINRVTRDDFENRSKLIDWIVRINKLSIGDTLTETQIRELLFDLELAYKSFYALLD | soluble |
| AKIGLFFGSNTGKTRKVAKSIKKRFDDETMSDALNVNRVSAEDFAQYQFLILGTPTLGEGELPGLSSDAENESWEEFLPKIEGLDFSGKTVALFGLGDQVGYPENYLDALGELYSFFKDRGAKIVGSWSTDGYEFESSEAVVDGKFVGLALDLDNQSGKTDERVAAWLAQIAPEFGLSL | soluble |
| MMEPTIHLRQAKAGDIPAILEIEQECFQEDSFSREQFVYLICRSKGTFYVVVEQERIIAYVSLLFHAGTRYLRIYSIAVHPDCRGRKLGQLLMERTIETALDCRAVKITLEVKESNTPAIKLYMKNGFIPVGVKPNYYHDGSDAIYMQRHM | not soluble |
| MGSDKIHHHHHHMINQDIARIFTEIAYLLEAAGEQKSQFEANAYLKASRAISSMQEDLETIYEKGGKDALLSIPGIGKGIADKIVEYINSGSIQKYEDLKKKYPIDFISLMKIEGLGPKKLAVLYQALGITNVEELRNAILNHKVRGIPGFGEKSENQLLKNIEMAERVSERIPIWKAYPEALRIKNYLESTGYALIVEIAGSTRRMKETIGDIDILAASEYPNALMDKFVEMDGVSSIIAKGDKKSTVSLKIGTTCDLRIVSKESFGAAMQYFTGSKDHNIKLRRLAIGKGMKLNEYGLFSGDKNIVSGMPEEKVYETLDLAYIPPELREDRGEIEAAAQKRLPEIVQYGEVKGDMFSKMDVSNIKNITGISYVFVDSGDGPLTDLYMYTFDGGRAVKTGASIKALDCSKLNAVSELKSASGVIMLYNIDSLGLPESAAVQNLIEKLSKSGIIVLINSSDVRPTSDFLYSLRKYDFKVAIGSFSDEPSLEGSMRFGIGITRRAWIEKNRIINTLDANALMSYLKNSQ | not soluble |
| MSKNIGLNAIEMSYLRQSLSLSAAQVGQLTNHSEAEVLAWENAETQAPELAQKKLLDIDDIIEMQVLNTTDGIEALFKKEPKRHLAFVVYPTQAIYTQYNPEFLSSLPLTELYNTAAWRIKKECKLVLEVDVSLINLNVEAYKAYREQNGLSESRESRAKWAATQL | soluble |
| MQLKRVAEAKLPTPWGDFLMVGFEEIATGHDHLALVYGDISGSVPVLARVHSECLTGDALFSLRCDCGFQLEAALGHIAEEGRGVLLYHRQEGRNIGLLNKIRAYALQDLGADTVEANHQLGFAADERDFTLCADMFKLLDVDEVRLLTNNPQKVKILNEAGINIVERVPLIVGRNPKNEHYLATKAAKMGHILDMKLEHHHHHH | not soluble |
| MIIKVIPVGPIAVNCSVVADEKSGEAIIIDPGAEAEKILEAVKDFKVVGIVATHGHIDHVGQVGKLKELFDVPFYMNPLDKFLINDEIWSGFASYIGAVPCPEPDVEISEGDVIRVGDVEFKVLHTPGHTPGLCCLYEEKRRVLIAGDLLFKGSVGRWDLPGGNLVELKKSVKRVLTELPQDTLVICGHYDETTIGQERAFNPFAGELLNG | soluble |
| MSLNFVAMDFETANQHPASACSLALVLVRESKIIDRFYTVINPQMAFDAQQVKVHDITAEDVAGAPTMAEVWPKIQPLFQPGMLVAAHNARFDCNVMKQSLARYGIAEPHYLVLDSLKVSRELEPGLDNYQLNTVSDLLGVELWHHHNALSDSEACAGILLKEEEKRGSELLKKFVYQVEGHHHHHH | not soluble |
| MSLYRLLIVEDEHLIRKWLRYAIDYQSLNILVVGEAKDGKEGAQLIQEEQPDIVLSDINMPIMTAFDMFEATKGQSYAKIILSGYADFPNAQSAIHYGVLEFLTKPLEKQALIDCLKTIMARIEEHKEKHLQEHTELYLPLPQANDQVPEVIKDMLAWIHSHFHGKIVISQLAHDLGYSESYLYTVTKKHLHITLSDYINQYRINQAIQLMFREPDLMVYQIAEAVGIYDYRYFDRVFKKYLGQTVKAFKEEHIFKQMDEGHHHHHH | soluble |
| EQPKCNVRVVEMTYTTVGVVGEATRASGVVLVPDGPQCPGPYPVLGWGRDGQTFRRSEQAKSIISAKGDDPLVTRLASQGYVVVGTDYLGLGGSNYPYHPYLHANSEASALIDALRASRTVLQHLNTPLSNKLMLSGFSQGGHTAMATQREIEAHLSNE | not soluble |
| MAHHHHHHMNRSASLPSASPSLSTMRTITVALCASSKKHQQSFDALREAGKLHNERLLLMRQHSASRQAGCGDVSGEAGEASTAAPQEGCASGSRGMSSHSRSRRTSRATSEVLAHPARSRSTTEGSLSCAALSNCLFRFLSLNYDAQRHRMVLCIDGDIKEVHQSSAAAFAQDGSKANAQQSPSVDEHAGTDSTVRGEGEPSQSALMDEVDVVLHKVATFGTPVAIRALHQWYNGAQKRRSRQRRAPLIVVDPLEKVQLLMTRSMLCKLLNNVGDDGQPIALIPRTFVWDCPSDAACRHARRTNGSSAATPLGIHSFTSMEEQEARANGTAAEHWWIAKPDESTGAAFTHHLVMWLTRDADVSVPTAVKAALPTEACRFILQELYVYALPVVLKVYCVGSHISVKVNPTVSLLNYLWEHTRGSTLADVPVAMDSQDKAFFSTVASVSTSRSQPTLSAMTSSTDDDALPATSPTMNATNAAGAPPSPTELPQGTSSESASAEQSLIAWESMVVPVDYWNAFLAPGTPAYTAISKLAQDLSGDAGVGLSLYGFDLVLVPQYLAHTYQRKGARGIGRTEGATVRYEGVAPSLSKVAHRSADTAKPVQRIPASHSMRKLPGAGASAPPSPVSQLFRASDMFDLASGAPTSLLLDSIPVVIDVNYFPGYKGVAEVNQHMLELIALKSMHLQDGSSNRAWHADTATGAEAKKRRCSMM | not soluble |
| MFKIVYPNAKDFFSFINSITNVTDSIILNFTEDGIFSRHLTEDKVLMAIMRIPKDVLSEYSIDSPTSVKLDVSSVKKILSKASSKKATIELTETDSGLKIIIRDEKSGAKSTIYIKAEKGQVEQLTEPKVNLAVNFTTDESVLNVIAADVTLVGEEMRISTEEDKIKIEAGEEGKRYVAFLMKDKPLKELSIDTSASSSYSAEMFKDAVKGLRGFSAPTMVSFGENLPMKIDVEAVSGGHMIFWIAPRLLEHHHHHH | soluble |
| GVDWQDANSLQYVVQSAETLVPDVKPVAQAESVNRVNTGGEGLGGELRDQEYAIILETLVECNGRRKEMAEKLGISPRTLRYKLAKMRDAGIDIPS | not soluble |
| MSLQPSQRVVLSHLVHGGWDEIAHSSLRPEIRGFKRTREVARSLLARRLPIYSAVFTGDCLFGNHPLLRPIGIHMQNVQAGNLLVSSTLVDGTVLNQAVCLMVHEDTEHAIGLMLNRPMQAMAGAITIQGTPQETPKIPRWNAEDLDETSEGDSTIDPSSDSIEHPVSGVPSVVISGDQKDQLAQQLLSGKLANGSSLHFGGPLSGPIVAVHSNRELAEAETGEGIFVAAQRENLEALMKSSDLPYRLIIGHLGWTAEQLENEIEEGIWHRIPATSDLLNSDDAMMWPRMIRRATANSVARWLDTTDVPGSAELNEGHHHHHH | soluble |
| MGSDKIHHHHHHMAAALDGIRVLDLSRVLAGPWASQALADLGAEVIKIERPGAGDDTRSWGPPFLKDEDGRETTDAAYFLAANRGKKSLTVDITKAEGQDLVRALAARSHVVIENFKLGGLAKYGLDWPSLRAVNPALVYCSITGFGQTGPYAPRAGYDAMIQAMSGLMSVTGEPDGVAGGGPMKVGVAVTDILTGLYAAFGILAALRHAEATGEGQHIDLALMDTAVACMANQAANALVGERVPGRLGTAHPNIVPYQAFATQDGHLMLAVGNDGQFARLCAIGQRPDLPLDPRFARNRDRVAHRAALLAEIIPMMASRSTDAWIAALESAGVPCGPINTLDRVFADPQVIARGLRVDGTHAEAGTVPMVRNPLLLSATPPTHTAGPPTLGQHTDGVLSDVLGLTAEDITTLRQKAIV | not soluble |
| MSLEMYPKIEDIKASYQNYCEFLEKVNTINLLKHKGKYIHYEDFNDNQIKRKIEKLESSILKTNVKYQKGAYIIYYKLRPGVIEFLRTMSEKYEIYLYTMGTLEHAKSCLFLLDPLRKFFGNRVFSRKDCLNSLKHLNKILPTYRSVSICIDDSDYIWKENSSCIKVHGYNYFPDINFFEDIKRAPYFLTKFFTFAQSYLNFTSNIYRFINFKCSEHEEFLKEGHHHHHH | not soluble |
| MGSDKIHHHHHHMMFGYIKPLKCELKVKEYEEFRGYYCGVCKALKKYSIIPRFLLTYEAASLGLLLSSLNNSDLKRKKELCIFTLKKVDFYSSSEIDEVARVFTALLREKLKDNYIDRKNPVYLFASAFLKKDPEISSLFENFYEMEKKEQDFKILAEEQGKIVGTILSKMVKEETQRKILYYLGLSLGKWLYIVDALDDFEKDKRKNVFNPLVKKYNGDLEKARSELRPHLKKCIDEMWKAYDLLDIKRNKTILDNIVYLGIPFITENVLVGKTCNLNHSTIL | not soluble |
| MNQELKLRPLEREDLKFVHELNNNAHIMSYWFEEPYEAFVELQDLYDKHIHDQSERRFIVEKDNEMVGLVELVEIDYIHRRTEFQIIIDPNYQGYGYAVEATRLAMDYAFAVLNMHKIYLVVDKENEKAVHVYKKVGFMVEGELIDEFFVDGNYHNAIRMCMFQKQYFENK | not soluble |
| SNAMNHSRESYDRLARELGGYRHPWARVLSGPDPELTFDLWLSRLLTPQTRVLEAGCGHGPDAARFGPQAARWAAYDFSPELLKLARANAPHADVYEWNGKGELPAGLGAPFGLIVSRRGPTSVILRLPELAAPDAHFLYVGPRLNVPEVPERLAAVGWDIVAEDHVSVLAHAPTWEDWQMRGEFMGKLARRADWDAEATVRGMPYREERHLVLARQLGVARKLGA | soluble |
| MASDPITTQEFSPRQNAVLDQALRLLVEGGEKALTTSGLARAANCSKESLYKWFGDRDGLLAAMITFQQSKVRTFEKAGDRVSAPQLADHLEVFAHDLLDVLAGDVSLALNRLAIGQASRDGSKLGDLLLERGRRQIDRRARGLIEAGRRSGYLRFDDAEEAYRSFYGLIVSDLHVRMLLGEAPDKDFSARAKKAVVAFLTLYGTEKVHSELGGKVA | soluble |
| GLDNELSLVDGQDRTLTVQQWDTFLNGVFPLDRNRLTREWFHSGRAKYIVAGPGADEFEGTLELGYQIGGPGIQEVATFSVDVSGAEGGVAVSNAHGTVTGAAGGVLLRPFARLIASTGDSVTTYGEPWNMN | soluble |
